Data on 4 proteins can be found in publication PMC10628242, “Enzymatic β-elimination in natural product O- and C-glycoside deglycosylation” (Nature Communications, 2023).

Substrate in series [1]: O=C(CCc1ccc(O)cc1)c1c(O)cc(O)cc1O[C@@H]1O[C@H](CO)[C@@H](O)C(=O)[C@H]1O
Briefly: initial rates, HPLC of phloretin release. In kind it is biochemical, Agrobacterium radiobacter. The settings on record: potassium phosphate pH 6.0, 5% DMSO, 37 °C, printed kcat is 10-fold above the one implied by printed kcat/Km (1.2 × 10^6 M^−1s^−1) and by 235 U/mg.

Substrate in series [2]: O=C(CCc1ccc(O)cc1)c1c(O)cc(O)cc1O[C@@H]1O[C@H](CO)[C@@H](O)C(=O)[C@H]1O
Briefly: initial rates, HPLC of phloretin release. In kind it is biochemical, human intestinal bacterium PUE. The settings on record: potassium phosphate pH 6.0, 5% DMSO, 37 °C, preincubated with 5 mM MnCl2.

Substrate in series [3]: O=C1[C@@H](O)[C@H](c2c(O)ccc3c(=O)c(-c4ccc(O)cc4)coc23)O[C@H](CO)[C@H]1O
Briefly: initial rates, HPLC of daidzein release. In kind it is biochemical, human intestinal bacterium PUE. The settings on record: potassium phosphate pH 6.0, 5% DMSO, 37 °C, preincubated with 5 mM MnCl2, substrate is a 2/3-keto mixture.

Substrate in series [4]: O=C(CCc1ccc(O)cc1)c1c(O)cc(O)cc1O[C@@H]1O[C@H](COP(=O)(O)O)[C@@H](O)[C@H](O)[C@H]1O
Briefly: initial rates, HPLC of phloretin release. In kind it is biochemical, Thermotoga maritima. Conditions: HEPES pH 7.5, 0.5 mM MnSO4, 0.3 mM NAD+, 37 °C.

Substrate in series [5]: O=C(CCc1ccc(O)cc1)c1c(O)cc(O)cc1O[C@@H]1O[C@H](COP(=O)(O)O)[C@@H](O)[C@H](O)[C@H]1O
Description: initial rates, HPLC of phloretin release. The series is classed as biochemical, Bacillus subtilis. Conditions: HEPES pH 7.5, 0.5 mM MnSO4, 0.3 mM NAD+, 37 °C.

B1: AtOGE (Agrobacterium radiobacter) (protein)
chain: KLDDSKTLPIAAQMYTLRNAGTLEEQLAILNRAGVSAVETVDMQKVSASELNALLEKHKIKVISSHVPIDKLRGNLDEVITEQKAVGNPVVTVPFLKPEDRPKDAAGWTAFGKELGGYADKLSAAGLSMAYHNHDFEMVKFDGKTALELLLDAAGPKLQSELDVAWVARSGNDPAEFLGTLNGRVFAIHAKDDAPAGTAENERGFATIGTGVLDWKTILPAAKHAGAQWFILEHDLPLDAEAVVTKGNAFLSERLPTIQ
notes: N-terminal Strep-tag II kept in assays (cut by TEV only for crystallization); E. coli Lemo21(DE3); 29,895 Da subunit; Mn2+ enzyme; dimer in crystal
On to B1, for which the Km in series [1] is listed as 0.10 (±0.01) mM.

B2: PuCGE (human intestinal bacterium PUE) (protein)
chain 1: MSNVKLGVTLYSFSTEYCQGKMTLEDCIRTAKELGAAGFEIVATQMIPSYPYVSDKFLGELKSICQYYDMEPVCYGANCDRGLRGDRNLTGDEMVAMAVRDIKNAHKMGCKVVREQWLMGPENFAKLAPFAEHYGVKVGIEVHNPETPITQSTKDYIAAIDKTGSKYLGLIPDFGCFANKPNKMNWDNALADGADKKLLEMARDMKYDNVPYDEAVKRLTAAGAKKVELTTMRDMYTFLTFKKDVSAELQGLKDMIPYCIHMHGKYHYMYENLQEAAIPYDDIMKIVSESDYDGYIVSEYEEYNSGHSIEMLRRHLKMMHNFVD
chain 2: MGLALRLNFVDVVCDDSLKNFWANGKKIGYQFDVRLSYYRGHFLSTIDEIGVKVDGVDVPAENISLCLDGKEYGVAELHDLVNVFWPIIEPATIKVFQPGGLSEEEHDVDFTLYFRSPYMALSETEYQSIDSCGSKRLNVQN
notes: heterodimer alpha (39,205 Da) + beta (18,313 Da), co-expressed from pET-Duet-1 in E. coli; N-terminal Strep-tag II; Mn2+ enzyme
On to B2, for which, in series [2], the Km is reported as 0.6 (±0.1) mM and the kcat was 1.20 (±0.05) s^−1. In series [3], the Km is 0.8 (±0.1) mM and the kcat is 18 (±0.4) s^−1.

B3: BglT (Thermotoga maritima MSB8) (protein)
chain: MRIAVIGGGSSYTPELVKGLLDISEDVRIDEVIFYDIDEEKQKIVVDFVKRLVKDRFKVLISDTFEGAVVDAKYVIFQFRPGGLKGRENDEGIPLKYGLIGQETTGVGGFSAALRAFPIVEEYVDTVRKTSNATIVNFTNPSGHITEFVRNYLEYEKFIGLCNVPINFIREIAEMFSARLEDVFLKYYGLNHLSFIEKVFVKGEDVTEKVFENLKLKLSNIPDEDFPTWFYDSVRLIVNPYLRYYLMEKKMFKKISTHELRAREVMKIEKELFEKYRTAVEIPEELTKRGGSMYSTAAAHLIRDLETDEGKIHIVNTRNNGSIENLPDDYVLEIPCYVRSGRVHTLSQGKGDHFALSFIHAVKMYERLTIEAYLKRSKKLALKALLSHPLGPDVEDAKDLLEEILEANREYVKLG
notes: N-terminal Strep-tag II; E. coli; 48,997 Da; GH4, Mn2+ and NAD+ dependent
As to B3, in series [4], the Km is 300 µM and the kcat was roughly 0.01 s⁻¹.

B4: GlvA (Bacillus subtilis subsp. subtilis str. 168) (protein)
chain: MKKKSFSIVIAGGGSTFTPGIVLMLLDHLEEFPIRKLKLYDNDKERQDRIAGACDVFIREKAPDIEFAATTDPEEAFTDVDFVMAHIRVGKYAMRALDEQIPLKYGVVGQETCGPGGIAYGMRSIGGVLEILDYMEKYSPDAWMLNYSNPAAIVAEATRRLRPNSKILNICDMPVGIEDRMAQILGLSSRKEMKVRYYGLNHFGWWTSIQDQEGNDLMPKLKEHVSQYGYIPKTEAEAVEASWNDTFAKARDVQAADPDTLPNTYLQYYLFPDDMVKKSNPNHTRANEVMEGREAFIFSQCDMITREQSSENSEIKIDDHASYIVDLARAIAYNTGERMLLIVENNGAIANFDPTAMVEVPCIVGSNGPEPITVGTIPQFQKGLMEQQVSVEKLTVEAWAEKSFQKLWQALILSKTVPNARVARLILEDLVEANKDFWPELDQSPTRIS
notes: N-terminal Strep-tag II; E. coli; 51,960 Da; GH4, Mn2+ and NAD+ dependent
With B4, in series [5], the Km is 100 µM and the kcat was roughly 0.02 s⁻¹.
